In article PMC11066007, “CORVET-specific subunit levels determine the balance between HOPS/CORVET endosomal tethering complexes” (Scientific Reports, 2024):

T1: VPS8-FLAG (human, UniProt Q8N3P4 1-1428)
T1 construct: VPS8, human, CORVET-specific subunit; DNA region encoding the full-length protein fused with a FLAG tag; also called CORVET-specific VPS8; source: HEK293, stably transfected (pCMV3), in lysate; not shown: FLAG, C-terminal, kept
T1 sequence (looked up): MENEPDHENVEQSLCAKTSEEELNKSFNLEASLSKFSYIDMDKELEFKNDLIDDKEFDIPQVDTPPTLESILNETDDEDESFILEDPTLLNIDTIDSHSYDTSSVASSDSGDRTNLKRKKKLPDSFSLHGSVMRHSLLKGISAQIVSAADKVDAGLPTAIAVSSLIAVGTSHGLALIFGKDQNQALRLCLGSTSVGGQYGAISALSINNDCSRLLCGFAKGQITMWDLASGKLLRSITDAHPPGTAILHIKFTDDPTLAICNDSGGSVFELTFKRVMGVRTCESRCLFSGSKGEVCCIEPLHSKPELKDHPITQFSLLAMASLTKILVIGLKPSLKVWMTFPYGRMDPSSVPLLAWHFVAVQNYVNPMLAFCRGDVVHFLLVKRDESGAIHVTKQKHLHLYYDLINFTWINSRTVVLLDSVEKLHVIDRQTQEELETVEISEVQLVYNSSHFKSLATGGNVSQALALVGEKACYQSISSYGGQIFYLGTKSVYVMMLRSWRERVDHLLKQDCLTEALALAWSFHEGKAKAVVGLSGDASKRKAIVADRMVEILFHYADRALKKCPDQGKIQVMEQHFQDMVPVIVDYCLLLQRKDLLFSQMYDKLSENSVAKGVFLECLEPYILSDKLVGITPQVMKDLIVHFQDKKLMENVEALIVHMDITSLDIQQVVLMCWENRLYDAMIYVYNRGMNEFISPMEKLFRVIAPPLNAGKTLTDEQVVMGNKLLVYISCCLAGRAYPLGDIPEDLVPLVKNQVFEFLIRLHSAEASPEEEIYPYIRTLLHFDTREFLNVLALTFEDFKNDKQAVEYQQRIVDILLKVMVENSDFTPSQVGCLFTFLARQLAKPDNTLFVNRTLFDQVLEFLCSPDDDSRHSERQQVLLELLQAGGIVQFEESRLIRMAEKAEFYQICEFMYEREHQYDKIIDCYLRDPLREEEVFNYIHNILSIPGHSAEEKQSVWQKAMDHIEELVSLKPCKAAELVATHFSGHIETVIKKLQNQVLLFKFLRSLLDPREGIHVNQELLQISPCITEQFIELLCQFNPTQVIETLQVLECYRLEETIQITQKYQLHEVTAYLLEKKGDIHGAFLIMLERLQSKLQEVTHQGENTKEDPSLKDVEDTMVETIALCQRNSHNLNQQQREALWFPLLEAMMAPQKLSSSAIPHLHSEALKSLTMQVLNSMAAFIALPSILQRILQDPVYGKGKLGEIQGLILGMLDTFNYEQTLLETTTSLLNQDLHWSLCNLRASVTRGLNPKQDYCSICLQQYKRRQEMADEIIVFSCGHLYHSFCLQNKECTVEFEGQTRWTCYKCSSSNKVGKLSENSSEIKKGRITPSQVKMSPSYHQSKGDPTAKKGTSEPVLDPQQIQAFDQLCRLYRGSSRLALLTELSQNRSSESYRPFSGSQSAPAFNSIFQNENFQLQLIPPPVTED

T2: Tgfbrap1-FLAG (human, UniProt Q8WUH2 1-860)
T2 construct: Tgfbrap1, human, CORVET-specific subunit; DNA region encoding the full-length protein fused with a FLAG tag; also called CORVET-specific Tgfbrap1; not shown: FLAG, C-terminal, kept
T2 sequence (looked up): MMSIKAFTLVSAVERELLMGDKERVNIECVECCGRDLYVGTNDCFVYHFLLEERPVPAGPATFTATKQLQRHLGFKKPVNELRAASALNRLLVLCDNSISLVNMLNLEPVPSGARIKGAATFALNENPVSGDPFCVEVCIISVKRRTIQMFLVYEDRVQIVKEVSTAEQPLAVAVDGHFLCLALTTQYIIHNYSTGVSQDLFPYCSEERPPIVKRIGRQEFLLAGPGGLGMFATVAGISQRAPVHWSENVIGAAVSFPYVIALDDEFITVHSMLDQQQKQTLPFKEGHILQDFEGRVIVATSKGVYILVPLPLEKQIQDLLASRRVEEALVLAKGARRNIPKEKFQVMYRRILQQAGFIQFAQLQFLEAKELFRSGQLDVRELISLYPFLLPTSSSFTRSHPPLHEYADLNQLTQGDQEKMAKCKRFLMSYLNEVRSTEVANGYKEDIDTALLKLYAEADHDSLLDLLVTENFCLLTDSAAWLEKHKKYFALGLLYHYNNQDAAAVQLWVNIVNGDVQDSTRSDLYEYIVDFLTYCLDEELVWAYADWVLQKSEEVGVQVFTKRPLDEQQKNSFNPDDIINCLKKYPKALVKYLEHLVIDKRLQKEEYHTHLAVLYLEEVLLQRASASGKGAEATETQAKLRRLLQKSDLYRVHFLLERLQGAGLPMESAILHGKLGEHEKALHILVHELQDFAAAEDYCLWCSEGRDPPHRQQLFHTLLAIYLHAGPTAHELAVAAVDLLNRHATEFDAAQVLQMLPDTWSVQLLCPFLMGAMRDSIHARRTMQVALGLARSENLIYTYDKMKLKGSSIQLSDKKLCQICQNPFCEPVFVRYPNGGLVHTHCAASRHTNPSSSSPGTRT

B1: VPS11 (natural protein, human (endogenous in HEK293), UniProt Q9H270 1-941, looked up)
chain: MAAYLQWRRFVFFDKELVKEPLSNDGAAPGATPASGSAASKFLCLPPGITVCDSGRGSLVFGDMEGQIWFLPRSLQLTGFQAYKLRVTHLYQLKQHNILASVGEDEEGINPLVKIWNLEKRDGGNPLCTRIFPAIPGTEPTVVSCLTVHENLNFMAIGFTDGSVTLNKGDITRDRHSKTQILHKGNYPVTGLAFRQAGKTTHLFVVTTENVQSYIVSGKDYPRVELDTHGCGLRCSALSDPSQDLQFIVAGDECVYLYQPDERGPCFAFEGHKLIAHWFRGYLIIVSRDRKVSPKSEFTSRDSQSSDKQILNIYDLCNKFIAYSTVFEDVVDVLAEWGSLYVLTRDGRVHALQEKDTQTKLEMLFKKNLFEMAINLAKSQHLDSDGLAQIFMQYGDHLYSKGNHDGAVQQYIRTIGKLEPSYVIRKFLDAQRIHNLTAYLQTLHRQSLANADHTTLLLNCYTKLKDSSKLEEFIKKKSESEVHFDVETAIKVLRQAGYYSHALYLAENHAHHEWYLKIQLEDIKNYQEALRYIGKLPFEQAESNMKRYGKILMHHIPEQTTQLLKGLCTDYRPSLEGRSDREAPGCRANSEEFIPIFANNPRELKAFLEHMSEVQPDSPQGIYDTLLELRLQNWAHEKDPQVKEKLHAEAISLLKSGRFCDVFDKALVLCQMHDFQDGVLYLYEQGKLFQQIMHYHMQHEQYRQVISVCERHGEQDPSLWEQALSYFARKEEDCKEYVAAVLKHIENKNLMPPLLVVQTLAHNSTATLSVIRDYLVQKLQKQSQQIAQDELRVRRYREETTRIRQEIQELKASPKIFQKTKCSICNSALELPSVHFLCGHSFHQHCFESYSESDADCPTCLPENRKVMDMIRAQEQKRDLHDQFQHQLKCSNDSFSVIADYFGRGVFNKLTLLTDPPTARLTSSLEAGLQRDLLMHSRRGT
notes: VPS11, shared class C core subunit of HOPS and CORVET, detected by anti-VPS11 western blot in anti-FLAG precipitates; also called core subunit VPS11; source: endogenous, HEK293 lysate
B2: VPS18 (natural protein, human (endogenous in HEK293), UniProt Q9P253 1-973, looked up)
chain: MASILDEYENSLSRSAVLQPGCPSVGIPHSGYVNAQLEKEVPIFTKQRIDFTPSERITSLVVSSNQLCMSLGKDTLLRIDLGKANEPNHVELGRKDDAKVHKMFLDHTGSHLLIALSSTEVLYVNRNGQKVRPLARWKGQLVESVGWNKALGTESSTGPILVGTAQGHIFEAELSASEGGLFGPAPDLYFRPLYVLNEEGGPAPVCSLEAERGPDGRSFVIATTRQRLFQFIGRAAEGAEAQGFSGLFAAYTDHPPPFREFPSNLGYSELAFYTPKLRSAPRAFAWMMGDGVLYGALDCGRPDSLLSEERVWEYPEGVGPGASPPLAIVLTQFHFLLLLADRVEAVCTLTGQVVLRDHFLEKFGPLKHMVKDSSTGQLWAYTERAVFRYHVQREARDVWRTYLDMNRFDLAKEYCRERPDCLDTVLAREADFCFRQRRYLESARCYALTQSYFEEIALKFLEARQEEALAEFLQRKLASLKPAERTQATLLTTWLTELYLSRLGALQGDPEALTLYRETKECFRTFLSSPRHKEWLFASRASIHELLASHGDTEHMVYFAVIMQDYERVVAYHCQHEAYEEALAVLARHRDPQLFYKFSPILIRHIPRQLVDAWIEMGSRLDARQLIPALVNYSQGGEVQQVSQAIRYMEFCVNVLGETEQAIHNYLLSLYARGRPDSLLAYLEQAGASPHRVHYDLKYALRLCAEHGHHRACVHVYKVLELYEEAVDLALQVDVDLAKQCADLPEEDEELRKKLWLKIARHVVQEEEDVQTAMACLASCPLLKIEDVLPFFPDFVTIDHFKEAICSSLKAYNHHIQELQREMEEATASAQRIRRDLQELRGRYGTVEPQDKCATCDFPLLNRPFYLFLCGHMFHADCLLQAVRPGLPAYKQARLEELQRKLGAAPPPAKGSARAKEAEGGAATAGPSREQLKADLDELVAAECVYCGELMIRSIDRPFIDPQRYEEEQLSWL
notes: VPS18, shared class C core subunit of HOPS and CORVET, detected by anti-VPS18 western blot in anti-FLAG precipitates; also called core subunit VPS18; source: endogenous, HEK293 lysate

Tests used:
[1] = biological target: T1, VPS8-FLAG; experiment: co-IP; anti-FLAG beads on total lysates of HEK293 cells stably transfected with a FLAG-tagged specific subunit, with or without transient overexpression of the counterpart subunit (control: pCMV); endogenous VPS11 and VPS18 detected by western blot, densitometry with ImageJ; lysis buffer 50 mM TRIS-HCl pH 7.5, 150 mM NaCl, 1% Triton X-100, 5 mM EDTA; 1.5 h at 4 °C; details: partners not purified
[2] = biological target: T2, Tgfbrap1-FLAG; experiment: as above; details: partners not purified

Binder | relative amount bound with Vps41-HA overexpressed (control cells HEK + pCMV as reference) [1] | relative amount bound with Vps39-HA overexpressed (control cells HEK + pCMV as reference) [2]
B1 | 1.52 relative to control cells | 1.05 relative to control cells
B2 | 1.21 relative to control cells | 1.31 relative to control cells
